In PMC4778762, “Acetylation of Lysine 201 Inhibits the DNA-Binding Ability of PhoP to Regulate Salmonella Virulence”:

Legend:
[1] = molecular target: T1, PhoP K201A K201A (Salmonella enterica serovar Typhimurium) (UniProt D0ZV90); assay: EMSA; details: EMSA: 25 mM Tris-HCl pH 8.0, 50 mM KCl, 0.5 mM EDTA, 10% glycerol, 37 C 30 min, gel at 4 C; SPR: Biacore 2000, streptavidin chip, buffer not given
T1 sequence: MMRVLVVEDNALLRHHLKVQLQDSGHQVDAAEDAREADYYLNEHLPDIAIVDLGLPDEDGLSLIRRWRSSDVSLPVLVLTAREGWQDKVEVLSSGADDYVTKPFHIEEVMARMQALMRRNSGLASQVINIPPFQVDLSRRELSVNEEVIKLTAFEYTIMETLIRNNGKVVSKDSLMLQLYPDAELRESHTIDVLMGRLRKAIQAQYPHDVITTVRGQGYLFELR

[2] = molecular target: T2, PhoP K201Q K201Q (Salmonella enterica serovar Typhimurium) (UniProt D0ZV90); assay: EMSA; details: EMSA: 25 mM Tris-HCl pH 8.0, 50 mM KCl, 0.5 mM EDTA, 10% glycerol, 37 C 30 min, gel at 4 C; SPR: Biacore 2000, streptavidin chip, buffer not given
T2 sequence: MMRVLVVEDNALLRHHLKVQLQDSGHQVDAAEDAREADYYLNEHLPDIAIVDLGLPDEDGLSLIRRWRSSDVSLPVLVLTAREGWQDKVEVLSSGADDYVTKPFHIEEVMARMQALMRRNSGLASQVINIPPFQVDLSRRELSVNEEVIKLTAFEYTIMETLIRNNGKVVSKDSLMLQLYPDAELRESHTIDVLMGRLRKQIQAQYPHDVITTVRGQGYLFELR

[3] = molecular target: T3, PhoP K201R K201R (Salmonella enterica serovar Typhimurium) (UniProt D0ZV90); assay: EMSA; details: EMSA: 25 mM Tris-HCl pH 8.0, 50 mM KCl, 0.5 mM EDTA, 10% glycerol, 37 C 30 min, gel at 4 C; SPR: Biacore 2000, streptavidin chip, buffer not given
T3 sequence: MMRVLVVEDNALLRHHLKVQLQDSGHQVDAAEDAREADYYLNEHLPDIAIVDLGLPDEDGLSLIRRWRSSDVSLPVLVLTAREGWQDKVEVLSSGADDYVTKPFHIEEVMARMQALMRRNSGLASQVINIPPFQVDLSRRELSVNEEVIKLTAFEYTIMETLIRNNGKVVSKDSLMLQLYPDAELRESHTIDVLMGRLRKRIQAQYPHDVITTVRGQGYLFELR

[4] = molecular target: T4, PhoP WT (Salmonella enterica serovar Typhimurium) (UniProt D0ZV90); assay: EMSA; details: EMSA: 25 mM Tris-HCl pH 8.0, 50 mM KCl, 0.5 mM EDTA, 10% glycerol, 37 C 30 min, gel at 4 C; SPR: Biacore 2000, streptavidin chip, buffer not given
T4 sequence: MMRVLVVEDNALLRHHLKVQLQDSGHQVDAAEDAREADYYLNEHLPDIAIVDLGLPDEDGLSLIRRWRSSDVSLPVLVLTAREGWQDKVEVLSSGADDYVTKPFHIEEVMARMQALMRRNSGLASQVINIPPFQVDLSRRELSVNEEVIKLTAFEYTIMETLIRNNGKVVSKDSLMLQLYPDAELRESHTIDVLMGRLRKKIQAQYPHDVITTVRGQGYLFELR

[5] = molecular target: PhoP WT (Salmonella enterica serovar Typhimurium, UniProt D0ZV90 1-224); assay: SPR; 0.3-1 uM PhoP; response 2.3-fold (0.6 uM) and 4.0-fold (1 uM) of that at 0.3 uM; EMSA: 25 mM Tris-HCl pH 8.0, 50 mM KCl, 0.5 mM EDTA, 10% glycerol, 37 C 30 min, gel at 4 C; SPR: Biacore 2000, streptavidin chip, buffer not given; details: protein: recombinant; tags: C-terminal 6xHis; chain copies: 2; label: 5'-biotin on strand 1; blunt

## ATCCTCTACAACCAGTACGCGCATCATCTCTTCTCCCTTGTGTTAACAATAAGAACAGTCTAGCGTTGATTATGGTGCTTTGGGGATAAACAGTTAATAAACCAGACAAATAGTCACCCTCTTTCTGAAGAAAAGAGGGTGAGGCAGGCATTATTTAAGTTCGTCGACCAGAGTCACAGCGCGA (double strand) [phoP promoter 184 bp]
[1]
  binding: binds more weakly
[2]
  binding: binds more weakly
[3]
  binding: binds
[4]
  binding: binds

B1: PhoP box of phoP promoter (dsDNA)
DNA 1: GGGGTCTGGTTTATTAACTGTTTATCCGGGG
DNA 2: CCCCGGATAAACAGTTAATAAACCAGACCCC
[5]
  binding result: binds
